Experimental data from paper PMC12237041.

Tests used:
[1] = target: IgA purified from human plasma (human); experiment: SEC; Superdex 200 10/300 GL; independent runs of plasma IgA, of inactive IgAse1–7 + E540A and of a preincubated mixture of both
[2] = target: T1, synthetic peptide mimicking the IgA1 hinge region, …-NH2 (human)
T1 sequence (peptide, C-terminal amide): VTVPSPVPSTPAR

B1: IgAse1–7 + E540A (domain or fragment)
chain: MASKPDIKVGDYVKMGVYNNASILWRCVSIDNNGPLMLADKIVDTLAYDAKTNDNSNSKSHSRSYKRDDYGSNYWKDSNMRSWLNSTAAEGKVDWLCGNPPKDGYVSGVGAYNEKAGFLNAFSKSEIAAMKTVTQRSLVSHPEYNKGIVDGDANSDLLYYTDISEAVANYDSSYFETTTEKVFLLDVKQANAVWKNLKGYYVAYNNDGMAWPYWLRTPVTDCNHDMRYISSSGQVGRYAPWYSDLGVRPAFYLDSEYFVTTSGSGSQSSPYIGSAPNKQEDDYTISEPAEDANPDWNVSTEQSIQLTLGPWYSNDGKYSNPTIPVYTIQKTRSDTENMVVVVCGEGYTKSQQGKFINDVKRLWQDAMKYEPYRSYADRFNVYALCTASESTFDNGGSTFFDVIVDKYNSPVISNNLHGSQWKNHIFERCIGPEFIEKIHDAHIKKKCDPNTIPSGSEYEPYYYVHDYIAQFAMVVNTKSDFGGAYNNREYGFHYFISPSDSYRASKTFAHAFGHGLLGLGDEYSNGYLLDDKELKSLNLSSVEDPEKIKWRQLLGFRNTYTCRNAYGSKMLVSSYECIMRDTNYQFCEVCRLQGFKRMSQLVKDVDLYVATPEVKEYTGAYSKPSDFTDLETSSYYNYTYNRNDRLLSGNSKSRFNTNMNGKKIELRTVIQNISDKNARQLKFKMWIKHSDGSVATDSSGNPLQTVQTFDIPVWNDKANFWPLGALDHIKSDFNSGLKSCSLIYQIPSDAQLKSGDTVAFQVLDENGNVLADDNTETQRYTTVSIQYKFEDGSEIPNTAGGTFTVPYGTKLDLTPAKTLYDYEFIKVDGLNKPIVSDGTVVTYYYKNKNEEHTHNLTLVAAKAATCTTAGNSAYYTCDGCDKWFADATGSVEITDKTSVKIPAPGHTAGTEWKSDDTNHWHECTVAGCGVIIESTKSAHTAGEWIVDTPATATTAGTKHKECTVCHRVLETQPIPSTGTELKIIAGDNQIYNKASGSDVTITCNGDFAKFTGIKVDGSVVDSSNYTAVSGSTVLTLKASYLGTLTDGSHTITFVYTDGEANANLTVRTAGSGHIHDYGTEWKSNADNHWHECNCGDKKDEAAHSFKWVVDKEATATKKGSKHEECKICGYKRSAVEI
Kd [1]: > 10 µM

B2: IgAse1–4 (enzyme)
chain: MASKPDIKVGDYVKMGVYNNASILWRCVSIDNNGPLMLADKIVDTLAYDAKTNDNSNSKSHSRSYKRDDYGSNYWKDSNMRSWLNSTAAEGKVDWLCGNPPKDGYVSGVGAYNEKAGFLNAFSKSEIAAMKTVTQRSLVSHPEYNKGIVDGDANSDLLYYTDISEAVANYDSSYFETTTEKVFLLDVKQANAVWKNLKGYYVAYNNDGMAWPYWLRTPVTDCNHDMRYISSSGQVGRYAPWYSDLGVRPAFYLDSEYFVTTSGSGSQSSPYIGSAPNKQEDDYTISEPAEDANPDWNVSTEQSIQLTLGPWYSNDGKYSNPTIPVYTIQKTRSDTENMVVVVCGEGYTKSQQGKFINDVKRLWQDAMKYEPYRSYADRFNVYALCTASESTFDNGGSTFFDVIVDKYNSPVISNNLHGSQWKNHIFERCIGPEFIEKIHDAHIKKKCDPNTIPSGSEYEPYYYVHDYIAQFAMVVNTKSDFGGAYNNREYGFHYFISPSDSYRASKTFAHEFGHGLLGLGDEYSNGYLLDDKELKSLNLSSVEDPEKIKWRQLLGFRNTYTCRNAYGSKMLVSSYECIMRDTNYQFCEVCRLQGFKRMSQLVKDVDLYVATPEVKEYTGAYSKPSDFTDLETSSYYNYTYNRNDRLLSGNSKSRFNTNMNGKKIELRTVIQNISDKNARQLKFKMWIKHSDGSVATDSSGNPLQTVQTFDIPVWNDKANFWPLGALDHIKSDFNSGLKSCSLIYQIPSDAQLKSGDTVAFQVLDENGNVLADDNTETQRYTTVSIQYKFEDGSEIPNTAGGTFTVPYGTKLDLTPAKTLYDYEFIKVDGLNKPIVSDGTVVTYYYKN
cleavage of the hinge peptide after overnight incubation at 37 °C, MALDI-TOF mass spectrometry [2]: < 1%
